Experimental findings from patent US20250376539A1 (KIRA PHARMACEUTICALS SUZHOU, published 2025) are described below.

Assay [1] addresses T1, recombinant human C2a, C-terminal 6His-tag, made in house (CHO cell expression) (human, UniProt P06681 244-752).
T1 sequence: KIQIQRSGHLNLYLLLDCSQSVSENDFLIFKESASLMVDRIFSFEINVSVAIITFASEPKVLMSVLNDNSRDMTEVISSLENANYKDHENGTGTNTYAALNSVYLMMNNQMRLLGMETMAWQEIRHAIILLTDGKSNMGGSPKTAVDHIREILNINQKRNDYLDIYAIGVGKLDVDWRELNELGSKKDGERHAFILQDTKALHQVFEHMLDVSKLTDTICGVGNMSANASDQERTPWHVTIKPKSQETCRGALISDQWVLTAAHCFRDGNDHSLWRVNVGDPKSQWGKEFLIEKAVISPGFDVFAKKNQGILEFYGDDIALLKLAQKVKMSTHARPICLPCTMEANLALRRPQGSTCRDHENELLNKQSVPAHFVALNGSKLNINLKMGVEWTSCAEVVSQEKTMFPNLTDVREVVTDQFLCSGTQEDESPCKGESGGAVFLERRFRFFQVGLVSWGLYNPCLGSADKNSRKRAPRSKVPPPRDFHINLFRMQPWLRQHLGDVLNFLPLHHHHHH
The assay is described as follows: ELISA. For orientation: An ELISA detects its analyte on a solid surface through an enzyme-linked reagent.

The target in assay [2] is T1, recombinant human C2a, C-terminal …. Nature of the assay: binding kinetics (BLI presumed).
Assay [3] has as its target T2, recombinant cyno C2a, C-terminal 6His-tag, made in house (CHO cell expression) (cynomolgus monkey, UniProt P06681 244-752 (human entry)).
T2 chain: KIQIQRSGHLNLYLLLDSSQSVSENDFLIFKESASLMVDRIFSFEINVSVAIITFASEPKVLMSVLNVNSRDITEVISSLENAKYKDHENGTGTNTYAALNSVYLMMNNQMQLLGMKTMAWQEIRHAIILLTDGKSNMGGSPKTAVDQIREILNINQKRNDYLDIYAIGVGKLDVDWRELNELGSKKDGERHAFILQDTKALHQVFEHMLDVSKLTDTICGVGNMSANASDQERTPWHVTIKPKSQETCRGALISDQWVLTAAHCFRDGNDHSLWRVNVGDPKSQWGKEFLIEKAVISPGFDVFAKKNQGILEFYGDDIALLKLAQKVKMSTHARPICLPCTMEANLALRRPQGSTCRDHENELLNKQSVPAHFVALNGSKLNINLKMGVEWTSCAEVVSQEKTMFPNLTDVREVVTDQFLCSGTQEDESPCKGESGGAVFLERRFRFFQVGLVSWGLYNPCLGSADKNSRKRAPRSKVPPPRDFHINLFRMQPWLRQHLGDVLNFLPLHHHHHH
The assay is described as follows: binding kinetics (BLI presumed).

Assay [4] addresses T3, recombinant human complement C2 (NP_000054.2), C-terminal 6His-tag, made in house (CHO cell expression) (human, UniProt P06681 21-752).
T3 construct: a linker before the tag is not described; also called human C2; Human C2
T3 sequence: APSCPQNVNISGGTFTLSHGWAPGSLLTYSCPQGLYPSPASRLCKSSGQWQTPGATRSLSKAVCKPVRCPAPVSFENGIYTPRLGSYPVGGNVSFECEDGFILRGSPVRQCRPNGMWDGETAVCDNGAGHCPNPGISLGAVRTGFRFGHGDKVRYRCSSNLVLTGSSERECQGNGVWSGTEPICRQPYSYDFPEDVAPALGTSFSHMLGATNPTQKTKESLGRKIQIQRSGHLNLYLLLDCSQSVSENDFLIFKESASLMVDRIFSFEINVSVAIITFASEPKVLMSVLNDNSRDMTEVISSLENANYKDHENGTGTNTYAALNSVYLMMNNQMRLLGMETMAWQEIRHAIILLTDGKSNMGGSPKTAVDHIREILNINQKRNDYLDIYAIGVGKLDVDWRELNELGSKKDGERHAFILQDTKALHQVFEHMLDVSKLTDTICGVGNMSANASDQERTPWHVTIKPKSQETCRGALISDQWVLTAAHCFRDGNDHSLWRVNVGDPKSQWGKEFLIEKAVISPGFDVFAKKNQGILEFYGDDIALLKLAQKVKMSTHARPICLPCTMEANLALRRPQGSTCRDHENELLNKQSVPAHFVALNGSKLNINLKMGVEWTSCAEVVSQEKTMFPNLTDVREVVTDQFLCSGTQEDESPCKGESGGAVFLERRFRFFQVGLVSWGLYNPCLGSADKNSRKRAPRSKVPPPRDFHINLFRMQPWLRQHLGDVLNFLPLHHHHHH
Nature of the assay: BLI (Gator); ratio of dissociation at pH 5.8 to pH 7.4. The method, then: (§1) The histidine mutant constructs in Table 4 were tested for their pH-dependent dissociation from human C2. Probe-immobilized anti-C2 antibodies were incubated with C2 at pH 7.4 for 600s, followed by a 600s dissociation period in K Buffer at pH 7.4 or pH 5.8. The data were processed and analyzed by the Gator evaluation software.

Assay [5] addresses T2, recombinant cyno C2a, C-terminal …. Nature of the assay: ELISA on cyno C2a, OD450nm against log Ab conc. (nmol/L).
Assay [6] addresses T1, recombinant human C2a, C-terminal …. Nature of the assay: ELISA on human C2a, OD450nm against log Ab conc. (nmol/L).
The target of assay [7] is T3, recombinant human complement C2 …. The assay is described as follows: BLI (Gator), antibody on probe; 600 s association at pH 7.4, 600 s dissociation at pH 5.8. The method, then:
as §1

Assay [8] has the same target. The assay is described as follows: BLI (Gator), antibody on probe; 600 s association at pH 7.4, 600 s dissociation at pH 7.4. The method, then:
as §1

B1: anti-C2 antibody 69.44 (antibody, IgG4, V domains shown)
VH: QVQLVQSGAEVKKPGASVKVSCKASGYSFTTYYMYWVRQAPGQGLEWMGIITPSGGSTTYAQKFQDRVTMTRDASTTTVYMELSSLRSEDTAVYYCARGYEGSYGFDHWGQGTLVTVSS
VL: SYELTQPPSVSLSPGQTASITCSGDKLGNKYTCWYQQKPGQSPVLVIYQDNKRPSGIPERFSGSNSGNTATLTISGTQAMDEADYYCQTWDSSTAVFGGGTKLTVL
notes: Recombinant
What is called EC50 is the concentration that produces a half-maximal response. A word on the Kd: it is the free concentration of one partner at which half of the binding sites on the other are occupied at equilibrium, for simple one-to-one binding. By koff is commonly meant a measure of how fast the partners let go of each other. Broadly, the kon is a measure of how fast the partners come together. With B1, in assay [1], the EC50 was determined as 0.117 nM. In assay [2], the equilibrium dissociation constant (Kd) was 0.347 nM, the off-rate (koff) is 6.68e-05 s⁻¹ and the kon turned out to be 193000 M⁻¹ s⁻¹. In addition, in assay [3], the Kd is 0.376 nM, the koff was 8.79e-05 s⁻¹ and the on-rate (kon) amounted to 234000 M⁻¹ s⁻¹.

B2: anti-C2 antibody 3.2 (antibody, IgG4, V domains shown)
VH: EVQLLESGGGLVQPGGSLRLSCAASGFTFRHYAMSWVRQAPGKGLEWVSLISGSGASTFYADSVKGRFTISRDNSENMLYLQMNSLRAEDTAVYYCAKDSLAVAGSEYFQHWGQGTLVTVSS
VL: SYVLTQAPSVSVAPGQTARITCGGNYFGGKSVHWYQQRPGQAPVLVVYDDSDRPSGIPERFSGSKSGNTATLAISRVEAGDEAAYYCQVYDTSSDHWVFGGGTKLTVL
notes: Recombinant; also called WT; "WT" 3.2
B2: the “Fold dissociation pH 5.8/pH 7.4” value in assay [4] was found to be 2.3 fold. Besides, the binding result in assay [5] and in assay [6] was “no binding (tested: 100 nmol/L)” throughout. Besides, in assay [7], the “Dissociation (%) pH 5.8” value came to 8.2%. Moreover, in assay [8], the “Dissociation (%) pH 7.4” value is 3.59%.
